T1: NANP trimer peptide (NANP3) (Plasmodium falciparum)
T1 chain: NANPNANPNANP

T2: NDN3 peptide (Plasmodium falciparum)
T2 chain: NANPNVDPNANP

T3: DND3 peptide (Plasmodium falciparum)
T3 chain: NVDPNANPNVDP

T4: NANP 5.5-mer peptide, NP(NANP)5 (Plasmodium falciparum)
T4 chain: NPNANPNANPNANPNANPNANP

T5: NPDP peptide (PfCSP aa 101-116) (Plasmodium falciparum NF54)
T5 chain: NPDPNANPNVDPNANP

T6: KQPA peptide (PfCSP aa 95-109) (Plasmodium falciparum NF54)
T6 chain: KQPADGNPDPNANPN

T7: NANP pentamer peptide (NANP5) (Plasmodium falciparum (NF54))
T7 chain: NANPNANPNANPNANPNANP


Experiments:
[1] = molecular target: T1, NANP trimer peptide (NANP3); test: ITC
[2] = molecular target: T2, NDN3 peptide; test: ITC
[3] = molecular target: T3, DND3 peptide; test: ITC
[4] = molecular target: T4, NANP 5.5-mer peptide, NP(NANP)5; test: SPR
[5] = molecular target: T5, NPDP peptide (PfCSP aa 101-116); test: SPR
[6] = molecular target: NVDP peptide (PfCSP aa 109-125) (Plasmodium falciparum NF54, UniProt P19597); test: SPR
Sequence of NVDP peptide (PfCSP aa 109-125) (P19597 109-128): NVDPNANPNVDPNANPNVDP

[7] = molecular target: T6, KQPA peptide (PfCSP aa 95-109); test: SPR
[8] = molecular target: T7, NANP pentamer peptide (NANP5); test: crystal structure
[9] = molecular target: complete C-terminus of PfCSP (C-CSP) (Plasmodium falciparum NF54, UniProt P19597); test: SPR

binding result [1] | binding result [2] | binding result [4] | binding result [5] | Binder | further results
binds | binds |  |  | Fab fragment of mAb 4498 (Fab, V domains shown) VH: QVQLVESGGGVVQPGRSLRLSCAASGFTFSIYGMHWVRQAPGKGLEWVALIWYDGTNKYYTDSVKGRFTISRDNSKNTLFLQMNSVRAEDTAVYYCARDAHYSDSSGYSSWGYFDYWGQGSLVTVSS VL: EIVLTQSPATLSLSPGERATLSCRASQSVSSYLAWYQQKPGQAPRLLIFDASIRATGIPARFSGSGSGTDFTLTISSLEPEDFAVYYCQQRSNWYTFGQGTKLEIK | binding result [3]: binds
 |  | binds | binds | mAb 4498 (recombinant human IgG1, kappa) (antibody, V domains shown) VH: QVQLVESGGGVVQPGRSLRLSCAASGFTFSIYGMHWVRQAPGKGLEWVALIWYDGTNKYYTDSVKGRFTISRDNSKNTLFLQMNSVRAEDTAVYYCARDAHYSDSSGYSSWGYFDYWGQGSLVTVSS VL: EIVLTQSPATLSLSPGERATLSCRASQSVSSYLAWYQQKPGQAPRLLIFDASIRATGIPARFSGSGSGTDFTLTISSLEPEDFAVYYCQQRSNWYTFGQGTKLEIK | binding result [6]: binds
 |  | binds | binds | mAb 2541 (recombinant human IgG1, kappa) (antibody, V domains shown) VH: QVQLVESGGGVVQPGRSLRLSCAASGFTFSSYGMHWVRQTTGKGLEWVAIIWHDGSKKYYADSVKGRLTISRDNSKNTLYLQMNSLRVEDTALYYCARVGDYSDFKYGAFDIWGQGTMVTVSS VL: DIQMTQSPSTLSASVGDRVTITCRASQSISSWLAWYQQKPGKAPNLLIYKASTLESGVPSRFSGSGSGTEFTLTISSLQPDDFATYYCQQYNSYWTFGQGTRVEIK | binding result [7]: binds
binds | no binding |  |  | Fab fragment of mAb 2541 (Fab, V domains shown) VH: QVQLVESGGGVVQPGRSLRLSCAASGFTFSSYGMHWVRQTTGKGLEWVAIIWHDGSKKYYADSVKGRLTISRDNSKNTLYLQMNSLRVEDTALYYCARVGDYSDFKYGAFDIWGQGTMVTVSS VL: DIQMTQSPSTLSASVGDRVTITCRASQSISSWLAWYQQKPGKAPNLLIYKASTLESGVPSRFSGSGSGTEFTLTISSLQPDDFATYYCQQYNSYWTFGQGTRVEIK | binding result [8]: binds
 |  |  |  | mAb 3246 (recombinant human IgG1, kappa) (antibody, V domains shown) VH: QVQLVESGGGVVQPGRSLRLSCAASGFTFSGSGMHWVRQAPGKGLEWVAIIWYDGSNKFYADSVKGRFTISRDNSKNTLYLQMNSLRGEDTAVYYCARVGDGDGNYMDVWGKGTTVTVSS VL: not shown | binding result [9]: binds

Source: publication doi:10.1101/798769 (bioRxiv, 2019)
